B1: anti-SARS-CoV2-14 IgG (full lambda light chain) (antibody, V domains shown)
VH: EVQLQQSGPGLVKPSQTLSLTCAISGDSVSSNSAAWNWIRQSPSRGLEWLGRTYYRSKWYNDYAVSVKSRITINPDTSKNQFSLQLNSVTPEDTAVYYCAREEQQLVHDYYYYGMDVWGQGTMVTVSS
VL: QAVVTQPASVSGSPGQSITISCTGTSSDIGAYNYISWYQQHPGKAPKLIIYEVSNRPSGISYRFSGSKSGNTASLTISGLQAEDEANYYCSSYAGSISFGGGTKVTVL
B2: anti-SARS-CoV2-14 IgM (full lambda light chain) (antibody)
heavy: EVQLQQSGPGLVKPSQTLSLTCAISGDSVSSNSAAWNWIRQSPSRGLEWLGRTYYRSKWYNDYAVSVKSRITINPDTSKNQFSLQLNSVTPEDTAVYYCAREEQQLVHDYYYYGMDVWGQGTMVTVSSGSASAPTLFPLVSCENSPSDTSSVAVGCLAQDFLPDSITFSWKYKNNSDISSTRGFPSVLRGGKYAATSQVLLPSKDVMQGTDEHVVCKVQHPNGNKEKNVPLPVIAELPPKVSVFVPPRDGFFGNPRKSKLICQATGFSPRQIQVSWLREGKQVGSGVTTDQVQAEAKESGPTTYKVTSTLTIKESDWLSQSMFTCRVDHRGLTFQQNASSMCVPDQDTAIRVFAIPPSFASIFLTKSTKLTCLVTDLTTYDSVTISWTRQNGEAVKTHTNISESHPNATFSAVGEASICEDDWNSGERFTCTVTHTDLPSPLKQTISRPKGVALHRPDVYLLPPAREQLNLRESATITCLVTGFSPADVFVQWMQRGQPLSPEKYVTSAPMPEPQAPGRYFAHSILTVSEEEWNTGETYTCVVAHEALPNRVTERTVDKSTGKPTLYNVSLVMSDTAGTCY
light: QAVVTQPASVSGSPGQSITISCTGTSSDIGAYNYISWYQQHPGKAPKLIIYEVSNRPSGISYRFSGSKSGNTASLTISGLQAEDEANYYCSSYAGSISFGGGTKVTVLGQPKAAPSVTLFPPSSEELQANKATLVCLISDFYPGAVTVAWKADSSPVKAGVETTTPSKQSNNKYAASSYLSLTPEQWKSHRSYSCQVTHEGSTVEKTVAPTECS
chain: not shown

How the values were obtained:
[1] = biological target: B.1.526 Iota variant spike protein on recombinant USA-WA1/2020 virus (SARS-CoV-2); experiment: cell-based or functional assay
[2] = biological target: T1, wild type RBD protein (generated as in Ku et al. 2021) (SARS-CoV-2, UniProt P0DTC2 319-541)
[3] = biological target: T1, wild type RBD protein (generated as in …); experiment: binding KD on RBD protein, generally as Example 4
[4] = biological target: T1, wild type RBD protein (generated as in …); experiment: BLI competition, RBD on sensor, antibody then ACE2; competitor ACE2

Binder | Neutralization EC50 (PRNT) [1] [mg/L] | EC50 (read off the curve) [2] [nM] | Fold-Increase in potency of IgM over IgG [1] [fold] | Kd [3] [nM] | EC50 [4] [nM]
B1 | 170 | – | – | – | –
B2 | 0.032 | ~0.9 | 5300 | < 0.001 | 0.86

Source: patent US20220267415A1 (University of Texas, published 2022)
